Article PMC6282390

Tests used:
[1] = system: Dicer WT (Homo sapiens); experiment: EMSA; conditions: 5'-phosphate, 3'-OH; 50 mM Tris pH 7.6, 50 mM NaCl, 10% glycerol, 0.05% NP-40, 2 mM DTT, (0.5 mM EDTA for WT), 2 pM RNA (10 pM in Fig. 4 legend), 30 min at 4 °C
[2] = system: Dicer D1320A/D1709A (Homo sapiens); experiment: EMSA; conditions: 5'-phosphate, 3'-OH; 50 mM Tris pH 7.6, 50 mM NaCl, 10% glycerol, 0.05% NP-40, 2 mM DTT, (0.5 mM EDTA for WT), 2 pM RNA (10 pM in Fig. 4 legend), 30 min at 4 °C

pre-let-7a-1
Kd [1]: 5 nM | Kd [2]: 9 nM
